Measurements taken from patent US20220387586A1 (Hoffmann-La Roche, published 2022).
Numbering of substitutions follows the chain as printed. Each block holds one binder with its values, some of them ahead of it.

What was measured:
[1] = biological target: T1, biotinylated PD1-ECD-AviHis (human, UniProt Q15116 25-170, biotinylated); experiment: ELISA (hu PD1, as described above)
T1 construct: also called huPD1; hu PD1; not shown: Avi-His tag
Description: After washing (3×90 μl/well with PBST-buffer) 25 μl/well goat-anti-human H+L-POD (JIR, JIR109-036-088)/Sheep-anti-mouse-POD (GE Healthcare; NA9310) was added in 1:2000/1:1000 dilution and incubated at RT for 1 h on shaker. After washing (3×90 μl/well with PBST-buffer) 25 μl/well TMB substrate (Roche Catalogue No. 11835033001) was added and incubated until OD 2-3. Measurement took place at 370/492 nm.

hu PD1-ECD [2] = biological target: T2, hu PD1-ECD (human, UniProt Q15116 25-170); experiment: SPR (Biacore T200), antibody captured by anti-human IgG, hu PD1-ECD as analyte, 25 °C, 1:1 Langmuir fit
T2 construct: SPR analyte; also called human PD1-ECD
T2 sequence (Q15116 25-170 limits assumed): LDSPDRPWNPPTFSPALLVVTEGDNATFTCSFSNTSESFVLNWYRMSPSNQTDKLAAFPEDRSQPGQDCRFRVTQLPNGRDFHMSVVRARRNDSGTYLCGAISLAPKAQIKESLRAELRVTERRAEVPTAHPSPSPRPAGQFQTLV
Description: Therefore, an anti-human IgG was immobilized by amine coupling to the surface of a (Biacore) CM5 sensor chip. […] The sensor chip surface was regenerated after each analysis cycle. The equilibrium constant and kinetic rate constants were finally gained by fitting the data to a 1:1 langmuir interaction model.
(§1) The samples were injected for 20 seconds with a concentration of 10 nM and bound to the second flow cell.
Finally the double referenced data was fitted to a 1:1 Langmuir interaction model with the Biacore T200 Evaluation Software.

hu PD1-ECD [3] = biological target: T2, hu PD1-ECD; experiment: SPR; row head 'Affinity KD 37° C.'; first of two numbers; first of the two numbers in the cell, row head 37° C.
hu PD1-ECD [4] = biological target: T2, hu PD1-ECD; experiment: SPR; row head 'Affinity KD 37° C.'; second of two numbers, equal to the 25 °C value of Table 3; second of the two numbers in the cell; only 37° C. is printed, split not explained
Description: as §1

[5] = biological target: T1, biotinylated PD1-ECD-AviHis; experiment: ligand replacing ELISA; row head 'IC50 PD-L1, 2 [nM]' (ligand not told apart); competing ligand printed only as 'PD-L1, 2'
biotinylated-Lag3 [6] = biological target: T3, biotinylated-Lag3 (UniProt P18627 23-450, limits assumed, biotinylated); experiment: ELISA, inhibition of biotinylated-Lag3 binding to MHC-II on A375 cells (competitor MHC-II); second of two numbers
T3 construct: Probably a human LAG3 ECD construct; also called Lag3 (MHCII/ELISA)
T3 sequence (looked up): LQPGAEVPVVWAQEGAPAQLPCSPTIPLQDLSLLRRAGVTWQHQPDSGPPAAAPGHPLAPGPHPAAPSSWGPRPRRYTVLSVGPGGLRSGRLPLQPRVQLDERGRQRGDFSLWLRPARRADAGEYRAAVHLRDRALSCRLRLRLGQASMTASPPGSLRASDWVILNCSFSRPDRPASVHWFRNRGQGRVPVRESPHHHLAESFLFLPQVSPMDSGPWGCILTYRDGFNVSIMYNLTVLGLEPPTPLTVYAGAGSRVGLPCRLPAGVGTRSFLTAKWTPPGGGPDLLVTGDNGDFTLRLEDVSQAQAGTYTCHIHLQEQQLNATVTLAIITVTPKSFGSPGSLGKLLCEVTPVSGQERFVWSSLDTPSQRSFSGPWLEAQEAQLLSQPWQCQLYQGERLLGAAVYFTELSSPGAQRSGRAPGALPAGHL

[7] = biological target: T4, human Fc tagged human Lag3 extra cellular domain (human, UniProt P18627 29-450, biotinylated in the epitope binning, the SA CAP SPR and the FACS competition assay); experiment: FACS, inhibition of biotinylated Lag3:Fc binding to MHC-II on A375 cells (competitor MHC-II); antibody 10 µg/ml
T4 construct: In-house fusion; also called huLag3-Fc; biotinylated, huFc-tagged huLag3; not shown: human Fc tag
T4 sequence: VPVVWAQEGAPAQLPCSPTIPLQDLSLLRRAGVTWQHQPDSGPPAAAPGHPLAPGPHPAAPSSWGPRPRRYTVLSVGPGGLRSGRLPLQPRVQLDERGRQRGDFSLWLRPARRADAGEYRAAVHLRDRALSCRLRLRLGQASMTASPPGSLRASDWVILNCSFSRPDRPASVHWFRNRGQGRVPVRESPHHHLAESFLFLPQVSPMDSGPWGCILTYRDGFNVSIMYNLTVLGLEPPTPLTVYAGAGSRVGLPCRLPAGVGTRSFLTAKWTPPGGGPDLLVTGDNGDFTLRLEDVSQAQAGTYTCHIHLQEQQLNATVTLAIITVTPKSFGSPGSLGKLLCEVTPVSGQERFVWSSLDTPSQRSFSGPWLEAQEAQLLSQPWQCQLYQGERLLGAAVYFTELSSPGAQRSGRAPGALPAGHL
Description: This analysis was studied in a FACS competition experiment: A375 cells (ATCC, #CRL-1619) were cultured for 2-3 passages in EM Eagle's medium supplemented with EBSS (PAN, cat.no. #P04-00509), 10% FBS, 2 mM L-Glutamin, 1×NEAA and 1× Sodium Pyruvate. All antibodies, were diluted in FACS buffer to a final concentration of 20 μg/ml in 25 μl (in 96well U-bottom plates). […] A375 cells were washed with PBS and adjusted to 3×10⁶ cells/ml in PBS. 100 μl were seeded per well in a 96well V-bottom plate. Plates were centrifuged and supernatant was removed. […] After this, cells were washed with 200 μl FACS buffer. […] After staining, cells were again washed and then transferred in 150 μl FACS buffer (PBS/2% FBS) to a U-bottom plate and analyzed on a FACS Canto-II using an HTS module.
All antibodies were used at 10 μg/ml final concentration.

biotinylated-Lag3 [8] = biological target: T3, biotinylated-Lag3; experiment: ELISA, inhibition of biotinylated-Lag3 binding to MHC-II on A375 cells (competitor MHC-II); first of two numbers
[9] = biological target: T1, biotinylated PD1-ECD-AviHis; experiment: ELISA on coated biotinylated PD1-ECD-AviHis
[10] = biological target: T5, biotinylated cynoPD1-ECD-Biotin (cynomolgus, UniProt B0LAJ3 25-170, biotinylated; the site and any Avi or His tag are not stated in the passages shown); experiment: ELISA on cyno PD1; row head 'cynomolgus crossreactivity (EC50 [nm])'
T5 construct: also called cyPD1
T5 sequence (B0LAJ3 entry or part of it limits assumed): as the sequence (Q15116 25-170 limits assumed) above, with D2E, P10A, V19L, T35A, Q75R, T144A counted along it

[11] = biological target: T5, biotinylated cynoPD1-ECD-Biotin; experiment: ELISA on coated cynoPD1-ECD-Biotin
hu PD1-ECD [12] = biological target: T2, hu PD1-ECD; experiment: SPR; row head 'Affinity KD 37° C.'; first of two numbers
Description: as §1

hu PD1-ECD [13] = biological target: T2, hu PD1-ECD; experiment: SPR; row head 'Affinity KD 37° C.'; second of two numbers, equal to the 25 °C value of Table 3
[14] = biological target: T6, full-length human PD1 on cells (human, UniProt Q15116 25-288); experiment: cell ELISA on CHO-K1 cells expressing full-length human PD1
T6 construct: also called CHO-PD1
T6 sequence (Q15116 25-288 limits assumed): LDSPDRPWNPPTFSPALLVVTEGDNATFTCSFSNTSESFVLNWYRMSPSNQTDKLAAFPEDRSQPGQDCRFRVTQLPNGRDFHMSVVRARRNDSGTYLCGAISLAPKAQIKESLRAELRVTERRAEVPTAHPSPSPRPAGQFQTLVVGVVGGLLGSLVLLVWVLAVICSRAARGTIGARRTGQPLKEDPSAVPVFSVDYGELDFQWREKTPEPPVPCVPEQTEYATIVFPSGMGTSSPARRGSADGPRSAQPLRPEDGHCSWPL
Description: (to avoid internalization). After washing carefully (1×90 μl/well PBST) cells were fixed by adding 30 μl/well 0.05% Glutaraldehyde (Sigma, Cat.No: G5882, 25%) diluted in 1×PBS-buffer and incubated for 10 min at RT. After washing (3×90 μl/well PBST) 25 μl/well secondary antibody was added for detection: goat-anti-human H+L-POD (JIR, JIR109-036-088)/Sheep-anti-mouse-POD (GE NA9310) followed by 1h incubation at RT on shaker. After washing (3×90 μl/well PBST) 25 μl/well TMB substrate solution (Roche 11835033001) was added and incubated until OD 1.0-2.0. Plates were measured at 370/492 nm.

[15] = biological target: T4, human Fc tagged human Lag3 extra …; experiment: SPR (Biacore T200), huLag3-Fc captured, antibody Fab fragment as analyte, 25 °C
Description: (§2) Therefore two flow cells of a C1 biosensor chip were prepared in a Biacore T200 by immobilizing neutravidin, diluted to 25 μg/ml in acetate buffer pH 4.5, onto it using the ‘immobilization wizard’. […] Then, CaptureSelect™ Biotin Anti-IgG-Fc (Human) Conjugate was bound to the neutravidin, using a 20 μg/ml dilution in running buffer (HBS-EP+, GE Healthcare).
(§3) The method itself consisted of four commands per cycle. […] Second command: sample injection for 120s followed by a 1200s long dissociation at a flow speed of 30 μl/min. Third and fourth command: regeneration by injecting Glycine-HCl pH 1.5 for 30 seconds.

[16] = biological target: T4, human Fc tagged human Lag3 extra …; experiment: SPR (Biacore T200), huLag3-Fc captured, antibody Fab fragment as analyte, 25 °C, 1:1 Langmuir fit; monovalent (first value line); bivalent line is tbd
Description: as §2, §3

[17] = biological target: T4, human Fc tagged human Lag3 extra …; experiment: SPR (Biacore T200), huLag3-Fc captured, antibody Fab fragment as analyte, 25 °C, 1:1 Langmuir fit
Description: as §2, §3

T1 sequence (Q15116 25-170): as the sequence (Q15116 25-170 limits assumed) above

- EC50 [1]: 0.2 nM
- Kd (hu PD1-ECD [2]): 0.8 nM
- koff (hu PD1-ECD [2]): 0.000307 s⁻¹
- kon (hu PD1-ECD [2]): 386000 M⁻¹ s⁻¹
- Kd (hu PD1-ECD [3]): 2 nM
- Kd (hu PD1-ECD [4]): 0.8 nM
- IC50 [5]: 1.35 nM
B1: chimeric PD1-0103 (antibody, human IgG1, V domains shown)
VH: EVILVESGGGLVKPGGSLKLSCAASGFSFSSYTMSWVRQTPEKRLDWVATISGGGRDIYYPDSVKGRFTISRDNAKNTLYLEMSSLMSEDTALYYCVLLTGRVYFALDSWGQGTSVTVSS
VL: KIVLTQSPASLPVSLGQRATISCRASESVDTSDNSFIHWYQQRPGQSPKLLIYRSSTLESGVPARFSGSGSRTDFTLTIDPVEADDVATYYCQQNYDVPWTFGGGTKLEIK
notes: also called chiPD1-0103

- IC50 (biotinylated-Lag3 [6]): 0.6 nM
- % Inhibition [7]: 71.7%
- IC50 (biotinylated-Lag3 [8]): 0.9 nM
B2: Reference MDX26H10 (antibody, V domains shown)
VH: QVQLVESGGGVVQPGRSLRLSCAASGFTFSSYGMHWVRQAPGKGLEWVAVIWYDGSNKYYADSVKGRFTISRDNSKNTLYLQMNSLRAEDTAVYYCAREWAVASWDYGMDVWGQGTTVTVSS
VL: not shown
notes: also called MDX-26H10 (26H10); aLAG3(MDX26H10)

- EC50 [9]: 11 ng/mL
- EC50 [10]: 0.05 nM
- EC50 [1]: 0.07 nM
- Kd (hu PD1-ECD [2]): 1.5 nM
- koff (hu PD1-ECD [2]): 0.000279 s⁻¹
- kon (hu PD1-ECD [2]): 187000 M⁻¹ s⁻¹
- EC50 [11]: 8.3 ng/mL
- Kd (hu PD1-ECD [12]): 1.6 nM
- Kd (hu PD1-ECD [13]): 1.5 nM
- EC50 [14]: 7.7 ng/mL
B3: PD1-0103-0314 (antibody, human IgG1, V domains shown)
VH: EVQLLESGGGLVQPGGSLRLSCAASGFSFSSYTMSWVRQAPGKGLEWVATISGGGRDIYYPDSVKGRFTISRDNSKNTLYLQMNSLRAEDTAVYYCVLLTGRVYFALDSWGQGTLVTVSS
VL: EIVLTQSPATLSLSPGERATLSCRASESVDTSDNSFIHWYQQKPGQSPRLLIYRSSTLESGIPARFSGSGSGTDFTLTISSLEPEDFAVYYCQQNYDVPWTFGQGTKVEIKR
notes: Humanized; also called PD1-103-0314; PD-0103-0314

- koff [15]: 0.000195 s⁻¹
- Kd [16]: 0.463 nM
B4: aLAG3(0414) Fab fragment (Fab, V domains shown)
VH: EVQLLESGGGLVQPGGSLRLSCAASGFIFDDYTMNWVRQAPGKGLEWVAVISWDGGGTYYTDSVKGRFTISRDDFKNTLYLQMNSLRAEDTAVYYCAKGLTDTTLYGSDYWGQGTLVTVSS
VL: DIQMTQSPSSLSASVGDRVTITCRASQSISSYLNWYQQKPGKAPKLLIYAASTLQSGVPSRFSGSGSGTDFTLTISSLQPEDFATYYCQQTYSSPLTFGGGTKVEIK

- koff [15]: 0.000221 s⁻¹
- Kd [17]: 0.0282 nM
B5: aLAG3(0416) Fab fragment (Fab, V domains shown)
VH: EVQLVESGGGLVQPGGSLRLACAASGFTFSDYAMSWVRQAPGKGLEWVSGIDNSGYYTYYTDSVKGRFTISRDDVKNTLYLQMNSLRAEDTAVYLCTKTHSGLIVNDAFDIWGQGTMVTVSS
VL: B4 VL with M4L, A50D, T53S, Q55E, F71A, T91S, S94T
